Assay [1] addresses Transduced TCR: None.
Assay [2] has as its target DR1-restricted TCR HA1.7.
For assay [3], the target named is memory CD4+ T cells from DR1+ donors, unstimulated (a small subset; their TCRs).
The target is the same in assay [4]. The source holds these as a separate data set.
In assay [5] the target is Transduced TCR: None. This is another data set of the same source.
The target in assay [6] is Transduced TCR: None. The source holds these as a separate data set.
The target of assay [7] is DR1-restricted TCR HA1.7. The source holds these as a separate data set.
In assay [8] the target is memory CD4+ T cells from DR1+ donors, unstimulated (a small subset; their TCRs). The source holds these as a separate data set.
For assay [9] the target is unchanged. This is another data set of the same source.
Assay [10] shares this target. This is another data set of the same source.
Assay [11] has the same target. This is another data set of the same source.
Assay [12] shares this target. The source holds these as a separate data set.
In assay [13] the target is Transduced TCR: None. This is another data set of the same source.
Assay [14] concerns the target DR1-restricted TCR HA1.7. This is another data set of the same source.
The target of assay [15] is DR1-restricted TCR HA1.7. This is another data set of the same source.
The target of assay [16] is DR1-restricted TCR HA1.7. Nature of the assay: flow cytometry, TCR-transduced primary T cells. (In general: Flow cytometry measures light scatter and fluorescence of single cells or particles in a stream.)
Assay [17] concerns the target memory CD4+ T cells from DR1+ donors, unstimulated (a small subset; their TCRs). This is another data set of the same source.
For assay [18] the target is unchanged. This is another data set of the same source.

Where two headings read alike, the source gives them in different places.

Turning to “DR1^L114W/V143M+6reps dimer loaded with Flu-HA306-318 (peptide-MHC)”, the percent multimer-positive CD4+ cells (number at the gate) in assay [1] is 0.1%; in [2], 48.2%.

As for “DR1^L114W/V143M+2reps dimer loaded with Flu-HA117-136 (peptide-MHC)”, the figures for the events in the dimer+ CD4+ gate in [3] and in assay [4] were 10 evts and 74 evts, respectively.

With “wild-type DR1 dimer loaded with Flu-HA306-318 (from UniProt P01911 30-227) (peptide-MHC)”, in assay [5], the percent multimer-positive CD4+ cells (number at the gate) was 0.1%.

In the case of “DR1^L114W/V143M dimer loaded with Flu-HA306-318 (peptide-MHC)”, the percent multimer-positive CD4+ cells (number at the gate) is 0% in assay [6] and 1.5% in assay [7].

Substance “Flu-HA232-251, DR1^L114W/V143M+2reps dimer (PE) (peptide-MHC)” came in with an events in the dimer+ CD4+ gate in assay [8] of 0 evts.

“Flu-HA5-24, DR1^L114W/V143M+2reps dimer (PE) (peptide-MHC)”: the events in the dimer+ CD4+ gate in assay [9] came out at 1 evts; in [10] it was 2 evts.

With “DR1^L114W/V143M+2reps dimer loaded with Flu-HA306-318 (peptide-MHC)”, the events in the dimer+ CD4+ gate in assay [11] amounted to 18 evts; in assay [12], 53 evts. Also, the percent multimer-positive CD4+ cells (number at the gate) was 0% in [13], 48.9% in assay [14] and 53% in [15]. Moreover, the % dimer+ CD4+ cells in [16] amounted to 9.1%.

Take “Flu-HA268-287, DR1^L114W/V143M+2reps dimer (PE) (peptide-MHC)”: the events in the dimer+ CD4+ gate stood at 0 evts in assay [17] and 2 evts in assay [18].

The values above are taken from patent publication US20220291215A1.
